In paper PMC6026032 (Brain research, 2018):

B1: HA-tagged Cbln4 (wild type) (ligand, mouse, UniProt Q8BME9 25-198, looked up)
chain: QNDTEPIVLEGKCLVVCDSNPATDSKGSSSSPLGISVRAANSKVAFSAVRSTNHEPSEMSNKTRIIYFDQILVNVGNFFTLESVFVAPRKGIYSFSFHVIKVYQSQTIQVNLMLNGKPVISAFAGDKDVTREAATNGVLLYLDKEDKVYLKLEKGNLLGGWQYSTFSGFLVFPL
modifications: N-linked glycans at N26 and N85; sialylated
B2: HA-tagged Cbln4 N85Q (ligand, mouse, UniProt Q8BME9 25-198, looked up)
chain: QNDTEPIVLEGKCLVVCDSNPATDSKGSSSSPLGISVRAANSKVAFSAVRSTNHEPSEMSQKTRIIYFDQILVNVGNFFTLESVFVAPRKGIYSFSFHVIKVYQSQTIQVNLMLNGKPVISAFAGDKDVTREAATNGVLLYLDKEDKVYLKLEKGNLLGGWQYSTFSGFLVFPL
modifications: N-linked glycan at N26 only (monoglycosylated)
B3: HA-tagged Cbln1 (wild type) (ligand, mouse, UniProt Q9R171 22-193, looked up)
chain: QNETEPIVLEGKCLVVCDSNPTSDPTGTALGISVRSGSAKVAFSAIRSTNHEPSEMSNRTMIIYFDQVLVNIGNNFDSERSTFIAPRKGIYSFNFHVVKVYNRQTIQVSLMLNGWPVISAFAGDQDVTREAASNGVLIQMEKGDRAYLKLERGNLMGGWKYSTFSGFLVFPL
modifications: N-linked glycans at N23 and N79; sialylated
B4: HA-tagged Cbln1 N79Q (ligand, mouse, UniProt Q9R171 22-193, looked up)
chain: QNETEPIVLEGKCLVVCDSNPTSDPTGTALGISVRSGSAKVAFSAIRSTNHEPSEMSQRTMIIYFDQVLVNIGNNFDSERSTFIAPRKGIYSFNFHVVKVYNRQTIQVSLMLNGWPVISAFAGDQDVTREAASNGVLIQMEKGDRAYLKLERGNLMGGWKYSTFSGFLVFPL
modifications: N-linked glycan at N23 only (monoglycosylated)
B5: HA-tagged Cbln1 N23Q (ligand, mouse, UniProt Q9R171 22-193, looked up)
chain: QQETEPIVLEGKCLVVCDSNPTSDPTGTALGISVRSGSAKVAFSAIRSTNHEPSEMSNRTMIIYFDQVLVNIGNNFDSERSTFIAPRKGIYSFNFHVVKVYNRQTIQVSLMLNGWPVISAFAGDQDVTREAASNGVLIQMEKGDRAYLKLERGNLMGGWKYSTFSGFLVFPL
modifications: N-linked glycan at N79 only (monoglycosylated)
B6: HA-tagged Cbln2 (wild type) (ligand, mouse, UniProt Q8BGU2 52-224, looked up)
chain: QNDTEPIVLEGKCLVVCDSSPSGDGAVTSSLGISVRSGSAKVAFSATRSTNHEPSEMSNRTMTIYFDQVLVNIGNHFDLASSIFVAPRKGIYSFSFHVVKVYNRQTIQVSLMQNGYPVISAFAGDQDVTREAASNGVLLLMEREDKVHLKLERGNLMGGWKYSTFSGFLVFPL
modifications: N-linked glycans at N53 and N110
B7: HA-tagged Cbln2 N110Q (ligand, mouse, UniProt Q8BGU2 52-224, looked up)
chain: QNDTEPIVLEGKCLVVCDSSPSGDGAVTSSLGISVRSGSAKVAFSATRSTNHEPSEMSQRTMTIYFDQVLVNIGNHFDLASSIFVAPRKGIYSFSFHVVKVYNRQTIQVSLMQNGYPVISAFAGDQDVTREAASNGVLLLMEREDKVHLKLERGNLMGGWKYSTFSGFLVFPL
modifications: N-linked glycan at N53 only (monoglycosylated)
B8: HA-tagged Cbln2 N53Q (ligand, mouse, UniProt Q8BGU2 52-224, looked up)
chain: QQDTEPIVLEGKCLVVCDSSPSGDGAVTSSLGISVRSGSAKVAFSATRSTNHEPSEMSNRTMTIYFDQVLVNIGNHFDLASSIFVAPRKGIYSFSFHVVKVYNRQTIQVSLMQNGYPVISAFAGDQDVTREAASNGVLLLMEREDKVHLKLERGNLMGGWKYSTFSGFLVFPL
modifications: N-linked glycan at N110 only (monoglycosylated)

Biological target: the molecule itself
Assay: native gel or EMSA

Stoichiometry N, 6:
B1
B2
B3
B4
B5
B6
B7
B8
